Series [1] relates to HT1080 human sarcoma cells. Description: PS upregulation on HT1080 sarcoma cells. Format: cell-based. As to conditions: Trabectedin 10 nM, 8 h; 6 experiments; p=0.001 vs non-Trabectedin control. How it is done:
FIG. 5: illustration of the synergistic activity of tTF-NGR and Trabectedin in HT1080 human sarcoma cells. […] Means+standard error (p value=0.001). Propidiumiodide was used as an internal necrosis control. […] Means of 4 experiments+standard error and p-values.
As in tumor tissues part of the inner vascular cell layer of the neovasculature is not formed by endothelial cells, but also by tumor cells, which is termed “vascular mimicry”, analog experiments were also performed with HT1080 human sarcoma cells instead of HUVECs (see FIG. 5).

The subject of the next series is HUVEC. Description: PS upregulation on HUVEC cell membranes, flow cytometry with annexin V-FITC. It is filed as cell-based, human. On the procedure: FIG. 4: illustration of the synergistic activity of tTF-NGR and Trabectedin in human vascular endothelial cells (HUVEC). […] PS is detected by the fluorescent PS-binding annexin V-FITC.
This effect is specifically dependent on the presence of PS as it can be completely abolished by masking PS via preincubation with annexin V.
(A flow cytometer gives signals particle by particle.)

The subject of a further series is tumor. In words: Intravascular contrast enhanced MRI of the tumor after tTF-NGR (FIG. 3). Format: in vivo. Conditions: few hours after tTF-NGR application. From the text:
FIG. 3: illustration of the therapeutic activity and modes of action of tTF-NGR by different imaging techniques. 1. Bluish coloration of the tumor (A, left: tTF-NGR. A, right: vehicle control) few hours after injection of tTF-NGR macroscopically visualizing blood pooling and vascular disruption. 2. Intravascular contrast enhanced Magnetic Resonance Imaging (MRI) of the tumor showing anatomy of the tumors (A, B) and drastic decrease of blood flow from high blood flow (C) to low (D) few hours after tTF-NGR application. The vascular volume fraction was quantified to decrease>1 log. 3. H&E staining of sarcoma xenograft tissue (A, thrombosis, blood pooling and vascular disruption after tTF-NGR; B, saline control with normal vasculature). 4. In vivo fluorescence reflectance imaging showing the vascular anatomy by intravascular fluorescent fibrin after tTF-NGR (B). A, before tTF-NGR; B, 1 hour after tTF-NGR; C, vascular disruption 24 hours after tTF-NGR.

The subject of series [2] is xenotransplants of human tumors. Description: Preclinical therapeutic activity in xenotransplants of human tumors. It is filed as in vivo. On the procedure:
(§1) These fusion proteins were tested in vitro and in vivo for essential therapeutic properties, such as pro-coagulatory activity, specific binding to their respective target molecules on stimulated endothelial cells (EC) or pericytes, in vivo intratumoral accumulation, in vivo intratumoral activation of coagulation, tumor vascular occlusion and inhibition of blood flow, pharmacodynamic properties including therapeutic antitumor activity in xenotransplants of human tumors from different histologic origin, and finally rodent as well as non-rodent animal safety and toxicology. […] Preclinical therapeutic activity of tTF-NGR was independent of tumor histology (e.g. melanoma, lung, breast, sarcoma, glioblastoma).

For the next series, the target named is T1, CD13 (Homo sapiens, UniProt P15144).
T1 construct: endogenous in cells; host or cells: growing / stimulated endothelial cells (EC)
T1 sequence (P15144 whole entry): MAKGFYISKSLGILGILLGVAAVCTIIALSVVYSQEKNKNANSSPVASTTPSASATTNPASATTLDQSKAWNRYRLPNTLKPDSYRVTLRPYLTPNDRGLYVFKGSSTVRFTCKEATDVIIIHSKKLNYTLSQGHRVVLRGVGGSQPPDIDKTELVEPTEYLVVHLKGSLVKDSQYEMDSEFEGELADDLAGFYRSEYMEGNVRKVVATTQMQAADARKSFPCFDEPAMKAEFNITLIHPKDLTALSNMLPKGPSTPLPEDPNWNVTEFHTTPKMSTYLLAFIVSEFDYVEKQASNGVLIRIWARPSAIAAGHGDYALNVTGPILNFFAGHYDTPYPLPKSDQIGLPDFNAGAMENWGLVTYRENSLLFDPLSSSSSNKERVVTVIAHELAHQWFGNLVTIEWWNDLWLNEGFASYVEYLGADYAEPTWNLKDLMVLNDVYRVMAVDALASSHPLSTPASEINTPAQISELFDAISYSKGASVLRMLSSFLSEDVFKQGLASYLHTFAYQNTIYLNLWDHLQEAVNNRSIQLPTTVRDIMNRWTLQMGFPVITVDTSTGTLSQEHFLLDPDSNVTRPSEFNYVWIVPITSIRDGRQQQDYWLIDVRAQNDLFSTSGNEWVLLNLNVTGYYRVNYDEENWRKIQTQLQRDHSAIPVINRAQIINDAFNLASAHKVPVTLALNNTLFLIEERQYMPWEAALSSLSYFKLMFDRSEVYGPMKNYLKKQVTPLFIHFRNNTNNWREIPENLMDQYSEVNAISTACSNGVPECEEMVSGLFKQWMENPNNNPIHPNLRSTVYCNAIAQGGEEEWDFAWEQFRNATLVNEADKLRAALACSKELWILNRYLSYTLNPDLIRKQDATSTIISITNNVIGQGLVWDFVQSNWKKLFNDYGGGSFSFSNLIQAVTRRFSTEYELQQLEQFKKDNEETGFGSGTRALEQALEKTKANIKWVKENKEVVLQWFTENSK
In words: Binding of tTF-NGR to its target on growing endothelial cells. Format: cell-based. On the procedure:
as §1

Series [3] can be described thus: Toxicity evaluation according to EU-guidelines S6 and S9. It is filed as in vivo. As to conditions: most sensitive species (mouse). From the text: tTF-NGR was produced using E. coli via a clinical-grade production process and a 4-step HPLC purification. The production process and the GMP facility are approved by the regional government (Manufacturer's Authorisation by Regierungspräsidium) and the federal Paul Ehrlich-Institute (PEI). Toxicity evaluation according to EU-guidelines S6 and S9 in mouse, rat, guinea pigs, and dogs has been completed.

Series [4] is described as follows: Clinical phase I study of tTF-NGR: pharmacokinetics. It is filed as in vivo, human. As to conditions: patients. On the procedure: (§2) A clinical phase I trial was performed (EudraCT-No.: 2016-003042-85; NCT02902237) with tTF-NGR applied as 1-hour infusion solved in 0.9% NaCl via a central venous line in late stage cancer patients. This trial was a first-in-class trial, which was guided by repeated contrast-enhanced ultrasound (CEUS) and MRI to assess for blood flow decrease in tumor signal lesions. A “5-day q day 22” schedule was used in the study design.

Series [5] concerns late stage solid tumor and lymphoma patients. In words: Clinical phase I study of tTF-NGR: DLT, safety, response. Format: in vivo, human. On the procedure:
as §2
This sensitive laboratory DLT was fast reversible and allows early monitoring for subsequent dose adjustment in future trials. […] Thus, the trial was completed with a recommended dose for phase II (RPIID) at 3 mg/m^2/day×5, q d 22. The investigational medicinal product (IMP) is given via a PORT central venous access in 100 mL 0.9% NaCl over a rate-controlled infusion with a 1-hour duration.
(§3) The tumor blood flow inhibition was up to >1-log-step. […] In none of the patients treated so far a CR or a PR could be observed.

The subject of series [6] is tumor blood flow (intratumoral blood circulation). In words: Clinical phase I study of tTF-NGR: tumor blood flow by CEUS and MRI. Format: in vivo, human. As to conditions: patients. On the procedure:
as §2, §3

On to `COc1cc2c(cc1O)CCN[C@]21CS[C@@H]2c3c(OC(C)=O)c(C)c4c(c3[C@H](COC1=O)N1[C@@H]2[C@H]2c3c(cc(C)c(OC)c3O)C[C@@H]([C@@H]1O)N2C)OCO4` [Trabectedin], for which the “PS upregulation on HT1080 sarcoma cells” value in series [1] is “significant PS upregulation”. Further, the “PS-positive cells (lower right quadrant)” value in the series with HUVEC (Trabectedin 15 nM, 8 h incubation, 7.21% without Trabectedin, one example experiment) turned out to be 29.22%. Besides, the “PS upregulation on HUVECs” value in the series with HUVEC (increasing doses, after 8 and 12 h, 7 experiments, P<0.0001 vs non-Trabectedin control) is “PS upregulation”.

B1: tTF-NGR: fusion protein of truncated tissue factor (tTF) with C-terminal NGR targeting peptide binding CD13 and N-terminal His-tag, SEQ ID NO: 2 (protein)
chain: MHHHHHHSSGLVPRGSGMKETAAAKFERQHMDSPDLGTDDDDKAMGSGTTNTVAAYNLTWKSTNFKTILEWEPKPVNQVYTVQISTKSGDWKSKCFYTTDTECDLTDEIVKDVKQTYLARVFSYPAGNVESTGSAGEPLYENSPEFTPYLETNLGQPTIQSFEQVGTKVNVTVEDERTLVRRNNTFLSLRDVFGKDLIYTLYYWKSSSSGKKTAKTNTNEFLIDVDKGENYCFSVQAVIPSRTVNRKSTDSPVECMGQEKGEFRGNGRAHA
modifications: His-tTF-NGR fusion protein
Consider B1, for which the “decrease of vascular volume fraction” value with tumor is listed as above 1 log. For the same molecule, in series [2] (independent of tumor histology (melanoma, lung, breast, sarcoma, glioblastoma)), the “effect on tumor growth” value was “tumor growth inhibition and regression”. For the same molecule, the resistance development result in [2] (repeated rounds of treatment) was “no resistance development”. The “binding to CD13 on growing EC” value with CD13 was “specifically binds to CD13”. Moreover, the limiting toxicity entry in series [3] is listed as “pulmonary embolism”. In addition, in series [4], the “accumulation with repeated cycles” value is on record as “no accumulation”. The “mean terminal half life” value in [4] (1-hour iv infusion) amounted to 8.99 h. Moreover, the adverse event entry is recorded as “transient ischemic attack” in [5] (at 3 mg/m^2, CTCAE II resolved, patient with angiosarcoma in left atrium); “central venous catheter-related venous thrombosis” in series [5] (at 4 mg/m^2, CTCAE grade II and resolved); “CTCAE grade II lower limb deep vein thrombosis” in [5] (at 5 mg/m^2, 1 patient, completely resolved). Also, the “kind of dose-limiting toxicity” value in series [5] (at 4 mg/m^2/day, fast reversible, no clinical sequelae) is “temporary troponin T hs showed increase”. Besides, the “dose limiting toxicity (DLT) dose” value in series [5] (daily 1-hour iv infusions for 5 days, q day 22) came to 5 mg/m^2 per day. The “patients with CR or PR” value in series [5] (patients treated so far) is “none”. In [5] (without clinical symptoms or neutralizing capacity), the “human anti-fusion protein antibodies (HAFA)” value is recorded as “detected in few patients”. Moreover, in series [5] (x5, q d 22), the “recommended dose for phase II (RPIID)” value is recorded as 3 mg/m^2/day. Moreover, in [6], the “blood flow in normal organs” value was “without blood flow decrease in normal organs”. Besides, the “tumor blood flow inhibition” value in series [6] (up to) is above 1 log-step.

Values taken from patent US12533399B2, “Composition comprising tTF-NGR for use in treating soft-tissue sarcoma” (ANTUREC PHARMACEUTICALS GMBH, priority 2020, dated 2026).
